Patent publication US20160264649A1

How the values were obtained:
Assay in all cases: cell-based or functional assay
[1] = target: HIV-1 Env of isolate MGRM-Chronic-B-020 (HIV-1)
[2] = target: HIV-1 Env of isolate MGRM-Chronic-B-024 (HIV-1)
[3] = target: HIV-1 Env of isolate MGRM-Chronic-B-018 (HIV-1)
[4] = target: HIV-1 Env of isolate JRCSF (HIV-1) (UniProt P20871)
[5] = target: HIV-1 Env of isolate MGRM-Chronic-B-004 (HIV-1)
[6] = target: HIV-1 Env of isolate 6535.3 (HIV-1)
[7] = target: HIV-1 Env of isolate MGRM-Chronic-B-023 (HIV-1)
[8] = target: HIV-1 Env of isolate MGRM-Chronic-B-002 (HIV-1)
[9] = target: HIV-1 Env of isolate NL43 (HIV-1)
[10] = target: HIV-1 Env of isolate 98IN022 (HIV-1)
[11] = target: HIV-1 Env of isolate QH0692.42 (HIV-1)
[12] = target: HIV-1 Env of isolate MGRM-Chronic-B-017 (HIV-1)
[13] = target: HIV-1 Env of isolate MGRM-Chronic-B-003 (HIV-1)
[14] = target: HIV-1 Env of isolate SC422661.8 (HIV-1)
[15] = target: HIV-1 Env of isolate THR0.18 (HIV-1)
[16] = target: HIV-1 Env of isolate 93IN905 (HIV-1)
[17] = target: HIV-1 Env of isolate CAAN.A2 (HIV-1)
[18] = target: HIV-1 Env of isolate APV_6 (HIV-1)
[19] = target: HIV-1 Env of isolate MGRM-Chronic-B-010 (HIV-1)
[20] = target: HIV-1 Env of isolate TRO.11 (HIV-1)
[21] = target: HIV-1 Env of isolate TRJ04551.58 (HIV-1)
[22] = target: HIV-1 Env of isolate VLGCB3 (HIV-1)
[23] = target: HIV-1 Env of isolate 93MW959 (HIV-1)
[24] = target: HIV-1 Env of isolate MGRM-Chronic-B-001 (HIV-1)
[25] = target: HIV-1 Env of isolate 93TH305 (HIV-1)
[26] = target: HIV-1 Env of isolate PVO.4 (HIV-1)
[27] = target: HIV-1 Env of isolate JRFL (HIV-1)
[28] = target: HIV-1 Env of isolate SF162 (HIV-1) (UniProt P19550)
[29] = target: HIV-1 Env of isolate MGRM-Chronic-B-012 (HIV-1)
[30] = target: HIV-1 Env of isolate APV_13 (HIV-1)
[31] = target: HIV-1 Env of isolate 97ZA012 (HIV-1)
[32] = target: HIV-1 Env of isolate 92 BR 020 (HIV-1)
[33] = target: HIV-1 Env of isolate MGRM-Chronic-B-008 (HIV-1)
[34] = target: HIV-1 Env of isolate MGRM-Chronic-B-011 (HIV-1)
[35] = target: HIV-1 Env of isolate APV_17 (HIV-1)

PGT-137 monoclonal antibody (5345_I01), sequence (VH): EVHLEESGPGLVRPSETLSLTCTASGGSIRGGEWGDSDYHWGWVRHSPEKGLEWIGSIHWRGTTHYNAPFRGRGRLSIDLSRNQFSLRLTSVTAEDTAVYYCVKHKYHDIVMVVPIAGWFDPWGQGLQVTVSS
PGT-137 monoclonal antibody (5345_I01), sequence (VL): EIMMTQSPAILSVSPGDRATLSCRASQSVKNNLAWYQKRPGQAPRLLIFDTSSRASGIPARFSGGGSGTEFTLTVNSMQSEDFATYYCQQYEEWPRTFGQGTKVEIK
PGT-136 monoclonal antibody (5329_C19; 5366_P21), sequence (VH): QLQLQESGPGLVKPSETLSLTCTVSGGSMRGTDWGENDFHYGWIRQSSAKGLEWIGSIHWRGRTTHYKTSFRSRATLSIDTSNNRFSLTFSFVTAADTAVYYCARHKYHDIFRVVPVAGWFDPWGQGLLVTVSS
PGT-136 monoclonal antibody (5329_C19; 5366_P21), sequence (VL): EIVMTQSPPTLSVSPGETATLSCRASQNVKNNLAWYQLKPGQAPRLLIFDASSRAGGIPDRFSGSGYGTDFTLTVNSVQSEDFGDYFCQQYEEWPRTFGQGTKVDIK

| Substance | neutralization IC50 [1] | neutralization IC50 [2] | neutralization IC50 [3] | neutralization IC50 [4] | neutralization IC50 [5] | neutralization IC50 [6] | neutralization IC50 [7] | neutralization IC50 [8] | neutralization IC50 [9] | neutralization IC50 [10] | neutralization IC50 [11] | neutralization IC50 [12] | neutralization IC50 [13] | neutralization IC50 [14] | neutralization IC50 [15] | neutralization IC50 [16] | neutralization IC50 [17] | neutralization IC50 [18] | neutralization IC50 [19] | neutralization IC50 [20] | other results |
| --- | --- | --- | --- | --- | --- | --- | --- | --- | --- | --- | --- | --- | --- | --- | --- | --- | --- | --- | --- | --- | --- |
| PGT-131 monoclonal antibody (5136_H01) | 0.053 µg/mL | > 50 µg/mL | > 50 µg/mL | 0.029 µg/mL | 0.04 µg/mL | 0.056 µg/mL | > 50 µg/mL | > 50 µg/mL | > 50 µg/mL | > 50 µg/mL | > 50 µg/mL | > 50 µg/mL | > 50 µg/mL | > 50 µg/mL | > 50 µg/mL | 0.177 µg/mL | > 50 µg/mL | > 50 µg/mL | 0.016 µg/mL | 1.91 µg/mL | neutralization IC50 [21]: 0.088 µg/mL; neutralization IC50 [22]: > 50 µg/mL; neutralization IC50 [23]: > 50 µg/mL; neutralization IC50 [24]: > 50 µg/mL; neutralization IC50 [25]: 0.016 µg/mL; neutralization IC50 [26]: > 50 µg/mL; neutralization IC50 [27]: 0.454 µg/mL; neutralization IC50 [28]: 0.025 µg/mL; neutralization IC50 [29]: 15.7 µg/mL; neutralization IC50 [30]: 0.189 µg/mL; neutralization IC50 [31]: 1.81 µg/mL; neutralization IC50 [32]: 6.16 µg/mL; neutralization IC50 [33]: > 50 µg/mL; neutralization IC50 [34]: 6.47 µg/mL; neutralization IC50 [35]: > 50 µg/mL |
| PGT-135 monoclonal antibody (5343_B08; 5344_E16) | 0.057 µg/mL | > 50 µg/mL | > 50 µg/mL | 0.131 µg/mL | > 50 µg/mL | > 50 µg/mL | 0.329 µg/mL | > 50 µg/mL | 8.03 µg/mL | 0.014 µg/mL | > 50 µg/mL | > 50 µg/mL | > 50 µg/mL | 21.8 µg/mL | > 50 µg/mL | 0.011 µg/mL | 5.15 µg/mL | > 50 µg/mL | > 50 µg/mL | 0.03 µg/mL | neutralization IC50 [21]: > 50 µg/mL; neutralization IC50 [22]: 0.142 µg/mL; neutralization IC50 [23]: > 50 µg/mL; neutralization IC50 [24]: > 50 µg/mL; neutralization IC50 [25]: > 50 µg/mL; neutralization IC50 [26]: > 50 µg/mL; neutralization IC50 [27]: > 50 µg/mL; neutralization IC50 [28]: 0.023 µg/mL; neutralization IC50 [29]: 0.166 µg/mL; neutralization IC50 [30]: 0.716 µg/mL; neutralization IC50 [31]: > 50 µg/mL; neutralization IC50 [32]: 0.073 µg/mL; neutralization IC50 [33]: > 50 µg/mL; neutralization IC50 [34]: > 50 µg/mL; neutralization IC50 [35]: > 50 µg/mL |
| PGT-136 monoclonal antibody (5329_C19; 5366_P21) | > 50 µg/mL | > 50 µg/mL | > 50 µg/mL | > 50 µg/mL | > 50 µg/mL | > 50 µg/mL | > 50 µg/mL | > 50 µg/mL | 27.7 µg/mL | 13.6 µg/mL | > 50 µg/mL | > 50 µg/mL | > 50 µg/mL | > 50 µg/mL | > 50 µg/mL | 0.011 µg/mL | > 50 µg/mL | > 50 µg/mL | > 50 µg/mL | 0.073 µg/mL | neutralization IC50 [21]: > 50 µg/mL; neutralization IC50 [22]: > 50 µg/mL; neutralization IC50 [23]: > 50 µg/mL; neutralization IC50 [24]: > 50 µg/mL; neutralization IC50 [25]: 20.2 µg/mL; neutralization IC50 [26]: > 50 µg/mL; neutralization IC50 [27]: > 50 µg/mL; neutralization IC50 [28]: 0.482 µg/mL; neutralization IC50 [29]: 43.1 µg/mL; neutralization IC50 [30]: > 50 µg/mL; neutralization IC50 [31]: > 50 µg/mL; neutralization IC50 [32]: 8.61 µg/mL; neutralization IC50 [33]: > 50 µg/mL; neutralization IC50 [34]: > 50 µg/mL; neutralization IC50 [35]: > 50 µg/mL |
| PGT-137 monoclonal antibody (5345_I01) | 32.9 µg/mL | > 50 µg/mL | > 50 µg/mL | > 50 µg/mL | > 50 µg/mL | > 50 µg/mL | > 50 µg/mL | > 50 µg/mL | 17.4 µg/mL | 0.408 µg/mL | > 50 µg/mL | > 50 µg/mL | > 50 µg/mL | > 50 µg/mL | > 50 µg/mL | 0.042 µg/mL | > 50 µg/mL | > 50 µg/mL | > 50 µg/mL | 9.35 µg/mL | neutralization IC50 [21]: > 50 µg/mL; neutralization IC50 [22]: 3.36 µg/mL; neutralization IC50 [23]: > 50 µg/mL; neutralization IC50 [24]: > 50 µg/mL; neutralization IC50 [25]: > 50 µg/mL; neutralization IC50 [26]: > 50 µg/mL; neutralization IC50 [27]: > 50 µg/mL; neutralization IC50 [28]: 3.41 µg/mL; neutralization IC50 [29]: > 50 µg/mL; neutralization IC50 [30]: > 50 µg/mL; neutralization IC50 [31]: > 50 µg/mL; neutralization IC50 [32]: 7.81 µg/mL; neutralization IC50 [33]: > 50 µg/mL; neutralization IC50 [34]: > 50 µg/mL; neutralization IC50 [35]: > 50 µg/mL |
